Patent publication US20230183713A1, “SITE-SPECIFIC RECOMBINASES FOR EFFICIENT AND SPECIFIC GENOME EDITING” (TECHNISCHE UNIVERSITÄt DRESDEN, published 2023)

Key:
[1] = molecular target: T1, Cre recombinase monomer with Q311R mutation
T1 chain: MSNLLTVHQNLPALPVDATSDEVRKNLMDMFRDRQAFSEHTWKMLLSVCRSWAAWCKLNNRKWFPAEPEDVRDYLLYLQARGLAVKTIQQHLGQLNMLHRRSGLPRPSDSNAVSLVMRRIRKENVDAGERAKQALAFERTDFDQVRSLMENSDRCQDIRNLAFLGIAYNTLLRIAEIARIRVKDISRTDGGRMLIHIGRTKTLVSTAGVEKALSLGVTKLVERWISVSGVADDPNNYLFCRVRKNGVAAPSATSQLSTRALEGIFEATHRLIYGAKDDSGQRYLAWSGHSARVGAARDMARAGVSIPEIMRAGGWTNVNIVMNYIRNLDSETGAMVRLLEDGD

[2] = molecular target: T2, Cre recombinase monomer with Y324L mutation
T2 chain: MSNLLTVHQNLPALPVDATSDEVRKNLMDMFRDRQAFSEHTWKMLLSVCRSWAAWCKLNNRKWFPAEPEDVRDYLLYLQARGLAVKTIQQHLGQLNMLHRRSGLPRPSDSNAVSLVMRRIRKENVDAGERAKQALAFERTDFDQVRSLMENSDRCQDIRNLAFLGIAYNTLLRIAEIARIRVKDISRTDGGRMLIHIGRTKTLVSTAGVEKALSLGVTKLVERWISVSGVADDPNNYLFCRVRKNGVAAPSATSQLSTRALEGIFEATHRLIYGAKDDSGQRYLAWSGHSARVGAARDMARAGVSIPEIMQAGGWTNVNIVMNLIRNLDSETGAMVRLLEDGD

[3] = molecular target: T3, Cre recombinase monomer with Y324K mutation
T3 chain: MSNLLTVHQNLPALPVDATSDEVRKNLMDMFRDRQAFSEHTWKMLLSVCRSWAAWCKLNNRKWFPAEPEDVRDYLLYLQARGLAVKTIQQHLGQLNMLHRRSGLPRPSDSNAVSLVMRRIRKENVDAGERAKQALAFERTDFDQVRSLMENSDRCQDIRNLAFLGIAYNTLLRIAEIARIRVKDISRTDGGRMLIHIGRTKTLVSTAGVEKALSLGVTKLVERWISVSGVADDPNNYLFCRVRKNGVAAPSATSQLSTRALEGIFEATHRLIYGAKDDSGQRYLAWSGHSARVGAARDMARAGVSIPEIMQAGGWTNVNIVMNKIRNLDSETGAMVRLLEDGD

[4] = molecular target: T4, Cre recombinase monomer with E176V mutation
T4 chain: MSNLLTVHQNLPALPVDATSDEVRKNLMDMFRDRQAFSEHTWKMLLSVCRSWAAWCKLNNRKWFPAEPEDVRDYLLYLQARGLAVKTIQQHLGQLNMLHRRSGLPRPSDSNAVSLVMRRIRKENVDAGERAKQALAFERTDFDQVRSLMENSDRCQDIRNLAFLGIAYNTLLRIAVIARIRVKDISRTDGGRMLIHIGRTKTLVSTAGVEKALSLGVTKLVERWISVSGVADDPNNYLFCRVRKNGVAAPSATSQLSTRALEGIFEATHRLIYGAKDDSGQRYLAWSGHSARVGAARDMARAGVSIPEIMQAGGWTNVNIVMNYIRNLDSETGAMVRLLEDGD

[5] = molecular target: T5, Cre recombinase monomer with E176H mutation
T5 chain: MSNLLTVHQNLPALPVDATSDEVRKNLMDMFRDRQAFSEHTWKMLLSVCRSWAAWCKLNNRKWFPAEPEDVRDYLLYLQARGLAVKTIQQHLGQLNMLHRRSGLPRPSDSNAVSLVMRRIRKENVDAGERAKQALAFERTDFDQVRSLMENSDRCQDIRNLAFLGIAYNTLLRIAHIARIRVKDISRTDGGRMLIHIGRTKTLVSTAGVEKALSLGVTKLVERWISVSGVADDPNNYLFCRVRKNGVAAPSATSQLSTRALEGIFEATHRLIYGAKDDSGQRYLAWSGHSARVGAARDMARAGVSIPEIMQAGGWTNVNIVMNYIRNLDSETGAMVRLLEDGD

[6] = molecular target: T6, Cre recombinase monomer with E176I mutation
T6 chain: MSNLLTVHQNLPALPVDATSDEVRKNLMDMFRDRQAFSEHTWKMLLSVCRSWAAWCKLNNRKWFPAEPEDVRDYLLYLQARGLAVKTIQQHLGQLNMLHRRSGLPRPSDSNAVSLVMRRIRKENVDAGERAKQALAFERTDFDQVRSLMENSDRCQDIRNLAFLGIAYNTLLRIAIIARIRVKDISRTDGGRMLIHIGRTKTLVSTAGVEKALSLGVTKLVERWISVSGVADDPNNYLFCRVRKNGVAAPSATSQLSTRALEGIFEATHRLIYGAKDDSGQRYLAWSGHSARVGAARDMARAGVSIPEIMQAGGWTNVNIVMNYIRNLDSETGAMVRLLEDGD

[7] = molecular target: T7, Cre recombinase monomer with E176Y mutation
T7 chain: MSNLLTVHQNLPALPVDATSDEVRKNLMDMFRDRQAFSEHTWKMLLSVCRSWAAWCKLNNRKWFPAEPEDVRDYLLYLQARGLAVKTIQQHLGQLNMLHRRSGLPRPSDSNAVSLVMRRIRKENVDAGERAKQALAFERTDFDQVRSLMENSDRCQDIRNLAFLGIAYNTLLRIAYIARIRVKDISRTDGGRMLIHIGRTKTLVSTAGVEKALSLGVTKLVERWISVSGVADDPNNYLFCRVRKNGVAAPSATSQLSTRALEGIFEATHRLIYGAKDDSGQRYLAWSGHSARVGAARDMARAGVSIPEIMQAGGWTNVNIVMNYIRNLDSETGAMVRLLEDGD

[8] = molecular target: T8, Cre recombinase monomer with E176M mutation
T8 chain: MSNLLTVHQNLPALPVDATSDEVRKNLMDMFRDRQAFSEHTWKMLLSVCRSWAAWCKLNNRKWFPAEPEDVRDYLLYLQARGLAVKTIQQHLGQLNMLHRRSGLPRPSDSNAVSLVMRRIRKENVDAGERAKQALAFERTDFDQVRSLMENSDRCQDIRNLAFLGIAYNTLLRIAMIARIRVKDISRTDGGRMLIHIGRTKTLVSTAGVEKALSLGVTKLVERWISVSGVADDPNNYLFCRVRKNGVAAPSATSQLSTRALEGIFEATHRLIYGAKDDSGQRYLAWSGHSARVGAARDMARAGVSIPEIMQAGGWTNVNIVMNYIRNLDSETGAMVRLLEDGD

Protein | Median dimer activity (recombination on loxP) [1] [%] | Median dimer activity (recombination on loxP) [2] [%] | Median dimer activity (recombination on loxP) [3] [%] | Median dimer activity (recombination on loxP) [4] [%] | Median dimer activity (recombination on loxP) [5] [%] | Median dimer activity (recombination on loxP) [6] [%] | Median dimer activity (recombination on loxP) [7] [%] | Median dimer activity (recombination on loxP) [8] [%]
Cre recombinase monomer with K201P mutation (protein) MSNLLTVHQNLPALPVDATSDEVRKNLMDMFRDRQAFSEHTWKMLLSVCRSWAAWCKLNNRKWFPAEPEDVRDYLLYLQARGLAVKTIQQHLGQLNMLHRRSGLPRPSDSNAVSLVMRRIRKENVDAGERAKQALAFERTDFDQVRSLMENSDRCQDIRNLAFLGIAYNTLLRIAEIARIRVKDISRTDGGRMLIHIGRTPTLVSTAGVEKALSLGVTKLVERWISVSGVADDPNNYLFCRVRKNGVAAPSATSQLSTRALEGIFEATHRLIYGAKDDSGQRYLAWSGHSARVGAARDMARAGVSIPEIMQAGGWTNVNIVMNYIRNLDSETGAMVRLLEDGD | 95 | 59 | – | – | – | – | – | –
Cre recombinase monomer with W315K mutation (protein) MSNLLTVHQNLPALPVDATSDEVRKNLMDMFRDRQAFSEHTWKMLLSVCRSWAAWCKLNNRKWFPAEPEDVRDYLLYLQARGLAVKTIQQHLGQLNMLHRRSGLPRPSDSNAVSLVMRRIRKENVDAGERAKQALAFERTDFDQVRSLMENSDRCQDIRNLAFLGIAYNTLLRIAEIARIRVKDISRTDGGRMLIHIGRTKTLVSTAGVEKALSLGVTKLVERWISVSGVADDPNNYLFCRVRKNGVAAPSATSQLSTRALEGIFEATHRLIYGAKDDSGQRYLAWSGHSARVGAARDMARAGVSIPEIMQAGGKTNVNIVMNYIRNLDSETGAMVRLLEDGD | – | – | 99 | – | – | – | – | –
Cre recombinase monomer with R173I mutation (protein) MSNLLTVHQNLPALPVDATSDEVRKNLMDMFRDRQAFSEHTWKMLLSVCRSWAAWCKLNNRKWFPAEPEDVRDYLLYLQARGLAVKTIQQHLGQLNMLHRRSGLPRPSDSNAVSLVMRRIRKENVDAGERAKQALAFERTDFDQVRSLMENSDRCQDIRNLAFLGIAYNTLLIIAEIARIRVKDISRTDGGRMLIHIGRTKTLVSTAGVEKALSLGVTKLVERWISVSGVADDPNNYLFCRVRKNGVAAPSATSQLSTRALEGIFEATHRLIYGAKDDSGQRYLAWSGHSARVGAARDMARAGVSIPEIMQAGGWTNVNIVMNYIRNLDSETGAMVRLLEDGD | 93 | – | – | 44 | 42 | 40 | – | –
Cre recombinase monomer with R173M mutation (protein) MSNLLTVHQNLPALPVDATSDEVRKNLMDMFRDRQAFSEHTWKMLLSVCRSWAAWCKLNNRKWFPAEPEDVRDYLLYLQARGLAVKTIQQHLGQLNMLHRRSGLPRPSDSNAVSLVMRRIRKENVDAGERAKQALAFERTDFDQVRSLMENSDRCQDIRNLAFLGIAYNTLLMIAEIARIRVKDISRTDGGRMLIHIGRTKTLVSTAGVEKALSLGVTKLVERWISVSGVADDPNNYLFCRVRKNGVAAPSATSQLSTRALEGIFEATHRLIYGAKDDSGQRYLAWSGHSARVGAARDMARAGVSIPEIMQAGGWTNVNIVMNYIRNLDSETGAMVRLLEDGD | 96 | – | – | 75 | 75 | – | 27 | 39
Cre recombinase monomer with R173W mutation (protein) MSNLLTVHQNLPALPVDATSDEVRKNLMDMFRDRQAFSEHTWKMLLSVCRSWAAWCKLNNRKWFPAEPEDVRDYLLYLQARGLAVKTIQQHLGQLNMLHRRSGLPRPSDSNAVSLVMRRIRKENVDAGERAKQALAFERTDFDQVRSLMENSDRCQDIRNLAFLGIAYNTLLWIAEIARIRVKDISRTDGGRMLIHIGRTKTLVSTAGVEKALSLGVTKLVERWISVSGVADDPNNYLFCRVRKNGVAAPSATSQLSTRALEGIFEATHRLIYGAKDDSGQRYLAWSGHSARVGAARDMARAGVSIPEIMQAGGWTNVNIVMNYIRNLDSETGAMVRLLEDGD | 95 | – | – | – | 57 | – | 30 | –
Cre recombinase monomer with R292T mutation (protein) MSNLLTVHQNLPALPVDATSDEVRKNLMDMFRDRQAFSEHTWKMLLSVCRSWAAWCKLNNRKWFPAEPEDVRDYLLYLQARGLAVKTIQQHLGQLNMLHRRSGLPRPSDSNAVSLVMRRIRKENVDAGERAKQALAFERTDFDQVRSLMENSDRCQDIRNLAFLGIAYNTLLRIAEIARIRVKDISRTDGGRMLIHIGRTKTLVSTAGVEKALSLGVTKLVERWISVSGVADDPNNYLFCRVRKNGVAAPSATSQLSTRALEGIFEATHRLIYGAKDDSGQRYLAWSGHSATVGAARDMARAGVSIPEIMQAGGWTNVNIVMNYIRNLDSETGAMVRLLEDGD | 94 | – | 55 | – | – | – | – | –
